Data set [1] in a line: Substrate profile on C2 to C10 alkanes (TTN normalized, MTN). The class given is biochemical. Conditions: highest TTN in the alkane series. As to the method: Reactions on alkanes. Reactions with alkanes from pentane to decane were carried out at 3 mL-scale using 100 mM KPi pH 8.0 buffer containing 2% ethanol (to allow alkane solubilization) and purified protein. 2.5 mL KPi buffer were added with 60 μL of 90 mM alkane solution in ethanol (final conc.=1.8 mM), 150 μL enzyme solution at 1 μM (final conc.=50 nM), and 300 μL NADPH regeneration solution (100 units/mL isocitrate dehydrogenase, 70 mg/mL isocitrate, 1.5 mg/ml NADP^+). Vials were sealed and stirred for 24 hours at 4° C. 1 mL-aliquot of the reaction was removed, added with 10 μl internal standard (25 mM 1-bromohexane in ethanol), and extracted with 200 μl chloroform (30 sec vortexing, 1 min centrifugation at 10000 g). The organic phase was removed and analyzed by gas chromatography. Reactions with ethane, propane, and butane were carried out as described for longer alkanes with the only difference that alkane-saturated KPi buffer was used. […] Propane and butane reactions were analyzed by direct injection of reaction solution on the GC using 1-pentanol as internal standard. Ethane reaction products were functionalized (see below) and analyzed by GC using 1-butanol as internal standard. […]
TTNs for each variant-substrate pair were determined using standardized reaction conditions (identical enzyme and substrate concentration, incubation time, cofactor regeneration system) (Table 18). […]

For data set [2] the following is noted: laurate; cited from earlier work.
Data set [3] is described as follows: NADPH oxidation rates and coupling for propane hydroxylation (Example 4). The class given is biochemical. Conditions: propanol formation rate/NADPH oxidation rate. The protocol: Determination of NADPH oxidation rates. Initial rates of NADPH oxidation were measured using propane-saturated 100 mM KPi pH 8.0 buffer, purified enzyme at 50-200 nM, and a saturating concentration of NADPH (200 μM). The absorbance decrease at 340 nm was monitored at 25° C. in a BioSpec-1601 UV/VIS spectrophotometer (Shimadzu, Columbia, MD) for 1 min. Rates were calculated over the first 20 seconds using NADPH extinction coefficient ε340=6210 M^−1 cm^−1. Rates were determined in triplicate. Coupling values were calculated from the ratio of propanol formation rate to NADPH oxidation rate in the presence of propane.

The source of these data is patent US12258605B2, “Alkane oxidation by modified hydroxylases” (The California Institute of Technology, priority 2005, dated 2025).

B1: Wild-type BM-3: wild-type cytochrome P450 BM-3 from Bacillus megaterium, SEQ ID NO:1 (protein, listed as Bacillus megaterium)
chain: TIKEMPQPKTFGELKNLPLLNTDKPVQALMKIADELGEIFKFEAPGRVTRYLSSQRLIKEACDESRFDKNLSQALKFVRDFAGDGLFTSWTHEKNWKKAHNILLPSFSQQAMKGYHAMMVDIAVQLVQKWERLNADEHIEVPEDMTRLTLDTIGLCGFNYRFNSFYRDQPHPFITSMVRALDEAMNKLQRANPDDPAYDENKRQFQEDIKVMNDLVDKIIADRKASGEQSDDLLTHMLNGKDPETGEPLDDENIRYQIITFLIAGHETTSGLLSFALYFLVKNPHVLQKAAEEAARVLVDPVPSYKQVKQLKYVGMVLNEALRLWPTAPAFSLYAKEDTVLGGEYPLEKGDELMVLIPQLHRDKTIWGDDVEEFRPERFENPSAIPQHAFKPFGNGQRACIGQQFALHEATLVLGMMLKHFDFEDHTNYELDIKETLTLKPEGFVVKAKSKKIPLGGIPSPSTEQSAKKVRKKAENAHNTPLLVLYGSNMGTAEGTARDLADIAMSKGFAPQVATLDSHAGNLPREGAVLIVTASYNGHPPDNAKQFVDWLDQASADEVKGVRYSVFGCGDKNWATTYQKVPAFIDETLAAKGAENIADRGEADASDDFEGTYEEWREHMWSDVAAYFNLDIENSEDNKSTLSLQFVDSAADMPLAKMHGAFSTNVVASKELQQPGSARSTRHLEIELPKEASYQEGDHLGVIPRNYEGIVNRVTARFGLDASQQIRLEAEEEKLAHLPLAKTVSVEELLQYVELQDPVTRTQLRAMAAKTVCPPHKVELEALLEKQAYKEQVLAKRLTMLELLEKYPACEMKFSEFIALLPSIRPRYYSISSSPRVDEKQASITVSVVSGEAWSGYGEYKGIASNYLAELQEGDTITCFISTPQSEFTLPKDPETPLIMVGPGTGVAPFRGFVQARKQLKEQGQSLGEAHLYFGCRSPHEDYLYQEELENAQSEGIITLHTAFSRMPNQPKTYVQHVMEQDGKKLIELLDQGAHFYICGDGSQMAPAVEATLMKSYADVHQVSEADARLWLQQLEEKGRYAKDVWAG
Consider B1, for which the “MTN (Maximal Turnover Number)” value in data set [1] is 150. In data set [2], the Km was 210 µM and the catalytic efficiency was 190000 M⁻¹ s⁻¹.

B2: P450PMO: P450 BM-3 variant, SEQ ID NO:125; 7-7 plus G443A and D698G; propane monooxygenase (protein)
chain: TIKEMPQPKTFGELKNLPLLNTDKPVQALMKIADELGEIFKFEAPGCVTRYISSQRLIKEACDESRFDKNLSQELKFFRDFGGDGLFTSWTHEINWKKAHNILLPSFSQQAMKGYHAMMVDIAVQLVQKWERLNADEHIEVSEDMTRLTLDTIGLCGFNYRFNSFYRDQPHPFIISMVRALDEVMNKPQRANPDDPAYDENKRQCQEDIKVMNDLVDKIIADRKARGEQSDDLLTQMLNGKDPETGEPLDDGNISYQIITFLIAGHETTSGLLSFALYFLVKNPHVLQKVVEEAARVLVDPVPSYKQVKQLKYVGMVLNEALRLWPTFPAFSLYAKEDTVLGGEYPLEKGDEVMVLIPQLHRDKTVWGDDVEEFRPERFENPSAIPQHAFKPFGNGQRACIGQQFALHEATLVLGMMLKHFDFEDHTNYELDIKETLTLKPEAFVVKAKSKKIPLGGIPSPSTGQSAKKVRKKAENAHNTPLLVLYGSNMGTAEGTARDLADIAMSKGFAPQVATLDSHAGNLPREGAVLIVTASYNGHPPDNAKQFVDWLDQASADEVKGVRYSVFGCGDKNWATTYQKVPAFIDETLAAKGAENIADRGEADASDDFEGTYEEWREHMWSDVAAYFNLDIENSEDNKSTLSLQFVDSAADMPLAKMHGAFSTNVVASKELQQPGSARSTRHLEIELPKEASYQEGGHLGVIPRNYEGTVNRVTARFGLDASQQIRLEAEEEKLAHLPLAKTVSVEELLQYVELQDPVTRTQLRAMAAKTVCPPHKVELEALLEKQAYKEQVLAKRLTMLELLEKYPACEMKFSEFIALLPSIRPRYYSISSSPRVDEKQASITVSVVSGEAWSGYGEYKGIASNYLAELQEGDTITCFISTPQSEFTLPKDPETPLIMVGPGTGVAPFRGFVQARKQLKEQGQSLGEAHLYFGCRSPHEDYLYQEELENAQSEGIITLHTAFSRMPNQPKTYVQHVMEQDGKKLIELLDQGAHFYICGDGSQMAPAVEATLMKSYADVHQVSEADARLWLQQLEEKGRYAKDVWAG
modifications: Mutant P450PMO protein sequence
notes: 7-7 plus G443A and D698G; propane monooxygenase
Take B2: in data set [3], the “coupling efficiency for propane hydroxylation” value turned out to be 90%.
